Entries after “also recorded” stand apart in the source; their conditions may differ.
How the values were obtained:
[1] = system: endogenous SAM levels in living E. coli cells; test: Live cell imaging of SAM accumulation with the SAM sensor; format: cell-based; settings: 50 μg/ml methionine plus inhibitor (25 μM adenosine periodate or 2.5 μM MT-DADMe-ImmA)
Experimental: Expression of the SAM aptamer and intracellular imaging was performed as described above for the ADP sensor: BL21-A Star E. coli cells (Invitrogen) were transformed with 40 ng of plasmid DNA expressing the tRNA-sensor chimeras in pET28c under the control of a T7 promoter. Cells were plated, grown overnight and single colonies were picked for inoculation in LB-Kan. At OD600=0.4, 1 mM of IPTG was added to the culture and shaking was continued at 37° C. for more 2 hours. 100 μL of culture was then removed, spun down to pellet the culture, and resuspended in 2 mL of pH 6.0 M9 minimal media. A 200 μl aliquot of resuspended culture was then plated on PLL-coated 24-well glass-bottom dishes (MatTek) and incubated for 45 minutes at 37° C. Adherent cells were washed twice and then incubated with 200 μM DFHBI in pH 6.0 M9 minimal media for 2 hours at 37° C. Cells were then treated with methionine alone or methionine with inhibitors by adding 2 μl of a 100× stock of the compound to a final concentration of 50 μg/ml for L-methionine, 25 μM for adenosine periodate, and 2.5 μM for MT-DADMe-ImmA. Live fluorescence images were taken with a CoolSnap HQ2 CCD camera through a 60× oil objective mounted on a Nikon TE2000 microscope and analyzed with the NIS-Elements software. The filter set used was a sputter coated filter cube with excitation filter 470/40, dichroic mirror 495 (long pass) and emission filter 525/50 (Chroma Technology).
Cells transformed with SAM sensors were grown overnight in LB-Kan. Cultures were then diluted to OD600=0.1 in 200 mL LB-Kan and grown to OD600=0.4. Cells were then induced for 2 hours with 1 mM IPTG at 37° C. with constant shaking. The entire culture was centrifuged for 5 min at 1,000×g, pellets were resuspended and washed once with M9 media and then resuspended in […] of M9 media containing 200 μM DFHBI and divided into two samples. Methionine (50 μg/ml) or vehicle was then added to either sample and cultures were incubated between 32-37° C. 25 ml aliquots were removed from methionine- and vehicle-treated sample at each time point, centrifuged for 5 min at 1,000×g, and flash frozen in liquid nitrogen. Cells were thawed on ice and lysed by resuspending the pellet in 300 μl of cold 4% perchloric acid. Insoluble material was then pelleted by spinning at 1,000×g for 5 min and the supernatant was transferred to a dialysis spin column with a 10,000 molecular weight cut off (Amicon) and spun at 10,000×g for 10 min at 4° C. A portion of the flow through (50 μl) was then injected on a Zorbax C8 column (Agilent) on an Agilent 1100 HPLC. Samples were loaded and eluted for 15 min with an aqueous buffer containing 3.6% acetonitrile, 40 mM ammonium phosphate, and 5 mM sodium 1-heptanesulfonate which was brought to pH 5.0 with hydrochloric acid. After each sample was eluted, the column was washed with a gradient of 3.6-25% acetonitrile for 30 min prior to the next samples being injected. SAM standards were used to calibrate SAM levels measured using this assay.
Population analysis was carried out using NIS-Elements software. Individual cells in a captured field were manually traced as Region of Interests (ROIs) and tracked through the different time points of image capture. Fluorescence intensity was then calculated by dividing the total fluorescence by the area for each ROI, which gives the mean intensity per unit area. Fold increase in fluorescence over time is calculated as the ratio of mean intensity at a desired time point and at time zero. Values in fold increase in fluorescence over time are plotted as frequency distributions or further used in statistical analyses.

[2] = Spinach-based RNA sensor fluorescence in response to GTP; format: biochemical
Experimental: Dose-response curves for each sensor in response to the target metabolite were determined by measuring the increase in fluorescence as a function of increasing target concentration in the presence of a fixed concentration of RNA sensor (10-50 nM) and a fixed concentration of fluorophore (10 μM). Curves were determined using a nonlinear regression analysis in Prism software and matched by least squares fitting to a standard dose-response model for 1:1 complexation.
The optimal sensors were chosen based on their low fluorescence in the absence of metabolite and the relative increase in fluorescence upon binding to the metabolite.

[3] = Relative fluorescence of Spinach derivatives compared to Spinach; format: biochemical; settings: same concentration of DFHBI in all samples
Text: Further modifications to Spinach were made in the same manner as described in Example 3, supra. These included modifications to the central loop, the stem formed between 5′ and 3′ ends, as well as stem-loops 1, 2, and 3. FIG. 17 illustrates the RNA sequences and secondary structures of Spinach (SEQ ID NO: 10), and five derivatives thereof, which are designated Spinach-2 (SEQ ID NO: 12), Spinach-4 (SEQ ID NO: 13), Spinach-6 (SEQ ID NO: 14), Spinach-7 (SEQ ID NO: 15), and Spinach-13 (SEQ ID NO: 11). RNA structure is shown as predicted by Mfold web-based software (Zuker, “Mfold Web Server for Nucleic Acid Folding and Hybridization Prediction,” Nucl. Acids Res. 31(13): 3406-3415 (2003), which is hereby incorporated by reference in its entirety). Substitutions present in the derivatives, relative to Spinach, are shown with a box formed around the base.
FIG. 18 is a graph illustrating the relative fluorescence of the Spinach derivatives compared to Spinach. In all samples shown, the same concentration of DFHBI, the Spinach-binding fluorophore, was included. […] In contrast, modifications to the 5′ and 3′ stem formation, the central loop, and stem-loop 2 were either tolerated or led to much improved fluorescence.

[4] = Emission and excitation of aptamer-DFHO complexes; format: physicochemical; settings: aptamer with DFHO
[5] = Emission and excitation of aptamer-MFHO complexes; format: physicochemical; settings: aptamer with MFHO
[6] = Emission and excitation of aptamer-DFAME complexes; format: physicochemical; settings: aptamer with DFAME
[7] = 0.1 μM RNA, 10 μM DFHBI, 1 mM competing molecule

CSC[C@H]1CN(Cc2c[nH]c3c(N)ncnc23)C[C@@H]1O [MT-DADMe-ImmA, MT-DADMe-Immucillin-A]
effect on average SAM levels / accumulation versus vehicle [1]: large decrease in the average accumulation of SAM
effect on inter-cell variability in SAM levels versus vehicle [1]: retained considerable variability in total SAM levels
effect on average SAM levels / accumulation versus vehicle ([1]; listed as Mt-DADMe-ImmA): substantial reduction in average SAM accumulation levels; also recorded: much greater reduction in average SAM accumulation levels
effect on inter-cell variability in SAM levels versus vehicle ([1]; listed as Mt-DADMe-ImmA): higher variability in SAM levels; also recorded: increased the variability in SAM levels

B1: GTP sensor: Spinach-based turn-on RNA sensor for GTP (nucleic acid)
chain: GACGCGACUGAAUGAAAUGGUGAAGGACGGGUCCAGCAGAAGAGCACGUAUACGCAAGCUUGUUGAGUAGAGUGUGAGCUCCGUAACUAGUCGCGUC
modifications: listed as RNA, chemistry not given here
increase in fluorescence in the presence of GTP ([2]; 0.1 μM RNA, 10 μM DFHBI, 1 mM GTP, versus no GTP): 15 fold
molecular discrimination: ATP [2, 7]: Only baseline fluorescence
molecular discrimination: GMP [2, 7]: exhibits fluorescence, although to a lesser extent; also recorded: moderate preference for GTP over GMP
molecular discrimination: cGMP and guanosine [2, 7]: minimal fluorescence; also recorded: tenfold less fluorescence
EC50 ([2]; predicted by curve fitting, read-out: half-maximal fluorescence (EC50), GTP): 7.7 mM

B2: Spinach-6: derivative of Spinach (nucleic acid)
chain: GACGCGACCGAAUGAAAUGGUGAAGGACGGGUCCAGGUGUGGCUGCUUCGGCAGUGCAGCUUGUUGCGUCGAGUGUGAGCUCGACGUAACUGGUCGCGUC
modifications: listed as RNA, chemistry not given here
relative fluorescence compared to Spinach [3]: greatly reduced fluorescence

B3: Spinach-13: derivative of Spinach (nucleic acid)
chain: GACGCGACCUAUGAAAUGGUGAAGGGACGGGUCCCAGCGGCUGCUUCGGCAGCCGCUGUUGAGUAGAGUGUGAGCUCCGUAACUGGUCGCGUC
modifications: listed as RNA, chemistry not given here
relative fluorescence compared to Spinach [3]: greatly reduced fluorescence

B4: Spinach-4: derivative of Spinach (nucleic acid)
chain: GACGCGACCGAAUGAAAUGGUGAAGGACGGGUCCAGCUGCGGCUGCUUCGGCAGCCGCAGCUUGUUGAGUAGAGUGUGAGCUCCGUAACUGGUCGCGUC
modifications: listed as RNA, chemistry not given here
relative fluorescence compared to Spinach [3]: enhanced fluorescence

B5: Spinach-7: derivative of Spinach (nucleic acid)
chain: GACGCGACCGAAUGAAAUGGUGAAGGACGGGUCCAGCCGGCUGCUUCGGCAGCCGGCUUGUUGAGUAGAGUGUGAGCUCCGUAACUGGUCGCGUC
modifications: listed as RNA, chemistry not given here
relative fluorescence compared to Spinach [3]: enhanced fluorescence

B6: Spinach-2: derivative of Spinach (nucleic acid)
chain: GACGCGACCGAAUGAAAUGGUGAAGGACGGGUCCAGGUGUGGCUGCUUCGGCAGUGCAGCUUGUUGAGUAGAGUGUGAGCUCCGUAACUGGUCGCGUC
modifications: listed as RNA, chemistry not given here
relative fluorescence compared to Spinach [3]: comparable fluorescence

B7: SEQ ID NO: 53: RNA aptamer listed for fluorophore DFHO (nucleic acid)
chain: GGGAGACGCAACUGAAUGAAAGACCUGACGAGGGUGAAGCGGUUGUCUGCUUCGGCAGCAUUGAAAGGGUGGGGUGUAGGAUGGUCCGUAACUAGUCGCGUCAC
modifications: listed as RNA, chemistry not given here
Em [4]: Em = 560 nm
Ex [4]: Ex = 520 nm

B8: SEQ ID NO: 54: RNA aptamer listed for fluorophore DFHO (nucleic acid)
chain: GGGAGACGCAACUGAAUGAAGCGAGGAAGGAGGUCUGAGGAGGUCACUGCUUCGACAGUGGGGCGUUUUCCCUGGGGGUGUUGAUCCGUAACUAGUCGCGUCAC
modifications: listed as RNA, chemistry not given here
Em [4]: Em = 545 nm
Ex [4]: Ex = 500 nm

B9: SEQ ID NO: 55: RNA aptamer listed for fluorophore MFHO (nucleic acid)
chain: GGGAGACGCAACUGAAUGAAGCGAGGAAGGAGGUCUGAGGAGGUCACUGCUUCGACAGUGGGGCGUUUUCCCUGGGGGUGUUGAUCCGUAACUAGUCGCGUCAC
modifications: listed as RNA, chemistry not given here
Em [5]: Em = 430 nm
Ex [5]: Ex = 580 nm

B10: SEQ ID NO: 56: RNA aptamer listed for fluorophore MFHO (nucleic acid)
chain: GGGAGACGCAACUGAAUGAAUGAGUAUGAUGCACGGUUAAAAUCCACUGCUUCGGCAGGAGUUGCGUUAGGAGGGUCGGGAGUCUCCGUAACUAGUCGCGUCAC
modifications: listed as RNA, chemistry not given here
Em [5]: Em = 570 nm
Ex [5]: Ex = 550 nm

B11: SEQ ID NO: 57: RNA aptamer listed for fluorophore DFAME (nucleic acid)
chain: GGGAGACGCAACUGAAUGAAAGACCUGACGAGGGUGAAGCGGUUGUCUGCUUCGGCAGCAUUGAAAGGGUGGGGUGUAGGAUGGUCCGUAACUAGUCGCGUCAC
modifications: listed as RNA, further chemistry not given here
Em [6]: Em = 570 nm
Ex [6]: Ex = 620 nm

B12: SEQ ID NO: 58: RNA aptamer listed for fluorophore DFAME (nucleic acid)
chain: GGGAGACGCAACUGAAUGAAGCCUCCGUGCGACAUCAUGCGCGCGACUGCUUCGGCAGAGGUGGGUGGUGUGGAGGAGUAUCUGUCCGUAACUAGUCGCGUCAC
modifications: listed as RNA, further chemistry not given here
Em [6]: Em = 610 nm
Ex [6]: Ex = 510 nm

B13: SEQ ID NO: 51: RNA aptamer listed for fluorophore DFHO (nucleic acid)
chain: GGGAGACGCAACUGAAUGAAGUUGGCCCAUGAUAGAAAGCAGGGUGCUGCUUCGGCAGUUGUCGGAGGGUGGGGGGAUUGACUAUCCGUAACUAGUCGCGUCAC
modifications: listed as RNA, chemistry not given here
Em [4]: Em = 550 nm
Ex [4]: Ex = 480 nm

B14: SEQ ID NO: 52: RNA aptamer listed for fluorophore DFHO (nucleic acid)
chain: GGGCGACUCACUAUAGGGAGACGCAACUGAAUGAAGCGAAGAAGGAGGUCUGAGGAGGUCACUGCUUCGGCAGUGGGGCGUUUUCCCUGGGGGUGUUGAUCCGUAACUAGUCGCGUCAC
modifications: listed as RNA, chemistry not given here
Em [4]: Em = 540 nm
Ex [4]: Ex = 490 nm

— patent publication US10444224B2, “Method for RNA detection and quantification” (Cornell University, priority 2011, dated 2019)
